From US20110217237A1 (AbbVie / Abbott, published 2011)
Where two headings read alike, the source gives them in different places.

Assays:
[1] = target: T1, human DLL4 extracellular domain (human, UniProt Q9NR61 27-529); experiment: SPR (Biacore)
T1 construct: purified recombinant ECD; biotin-labelled or 6xHis-tagged depending on the assay; also called huDLL4 ECD; hu DLL4 ECD
Procedure: (§1) The BIACORE® surface plasmon resonance assay (Biacore, Inc., Piscataway, N.J., US) determines the affinity of antibodies with kinetic measurements of on-rate and off-rate constants. Binding of DLL4 antibodies to a purified recombinant DLL4 extracellular domain (ECD) was determined by surface plasmon resonance-based measurements with a Biacore® instrument (either a Biacore 2000, Biacore 3000, or Biacore T100; GE Healthcare, Piscataway, N.J., US) using running buffer HBS-EPB (10 mM HEPES [pH 7.4], 150 mM NaCl, 3 mM EDTA, 0.1 mg/ml BSA and 0.005% surfactant P20) at 25° C. For example, approximately 9000 RU of goat anti-human Fc specific polyclonal antibody (Thermo Fisher Scientific Inc., Rockford, Ill., US) diluted in 10 mM sodium acetate (pH 4.5) is directly immobilized across a CMS research grade biosensor chip using a standard amine coupling kit according to manufacturer's instructions and procedures at 25 μg/ml. Unreacted moieties on the biosensor surface were blocked with ethanolamine. For kinetic analysis, rate equations derived from the 1:1 Langmuir binding model were fitted simultaneously to multiple antigen injections (using global fit analysis) with the use of Scrubber 2 (BioLogic Software), Biacore Biaevaluation 4.0.1 software or Biacore T100 Evaluation software. Purified antibodies were diluted in running buffer for capture across goat anti-human Fc reaction surfaces. Antibodies to be captured as a ligand (1 μg/ml) were injected over reaction matrices at a flow rate of 10 μl/min. During the assay, all measurements were referenced against the capture surface alone (i.e., with no captured anti-DLL4 antibody). […] The equilibrium dissociation constant KD (M) of the reaction between antibodies and the target antigen was then calculated from the kinetic rate constants by the following formula: KD=Koff/Kₒₙ. Binding was recorded as a function of time and kinetic rate constants were calculated.

[2] = target: T2, cynomolgus monkey DLL4 extracellular domain (cynomolgus monkey); experiment: SPR (Biacore)
T2 construct: extracellular domain; also called cynoDLL4 ECD; Cyno DLL4
Procedure: as §1

[3] = target: T3, mouse DLL4 extracellular domain (mouse, UniProt Q9JI71 27-532); experiment: SPR (Biacore)
T3 construct: extracellular domain; also called muDLL4 ECD; murine DLL4
Summary of the method: (§2)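 Purified anti-DLL4 antibodies (1 μg/ml) captured on immobilized goat anti-human Fc, with DLL4 ECD injected as analyte; HBS-EPB running buffer (pH 7.4), 25° C, referenced against capture-only surface. On/off rates from global 1:1 Langmuir fit; KD = Koff/Kon.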

[4] = target: T4, rat DLL4 extracellular domain (rat, UniProt D3ZHH1 28-530); experiment: SPR (Biacore)
T4 construct: extracellular domain; also called ratDLL4 ECD
Summary of the method: as §2

[5] = target: T5, human DLL4, full length, on cells (human, UniProt Q9NR61 27-685); experiment: FACS, DLL4 cells
T5 construct: also called huDLL4 cells; human DLL4-293G
Procedure: (§3) Stable cell lines overexpressing cell-surface DLL4 were harvested from tissue culture flasks, washed four times and resuspended in phosphate buffered saline (PBS) containing 1% bovine serum albumin and 1 mM CaCl₂ (FACS buffer). 1.5×10⁵ cells were incubated with antibodies at various concentrations in FACS buffer for 60 minutes on ice. […] Following an incubation on ice (4° C., 60 minutes), cells were washed three times and resuspended in FACS buffer. Fluorescence was measured using a Becton Dickinson FACSCalibur-HTS (Becton Dickinson, San Jose, Calif., US). Data were analyzed using Graphpad Prism software and EC₅₀ values were reported as the concentration of antibody to achieve 50% of maximal DLL4 antibodies binding to DLL4 expressing cells. […]

mouse DLL4 on cells [6] = target: T6, mouse DLL4 on cells (mouse, UniProt Q9JI71 27-686); experiment: FACS, DLL4 cells
T6 construct: whole, on cells; also called mouse DLL4-293G; mu DLL4 cells
Procedure: as §3

[7] = target: T5, human DLL4, full length, on cells; experiment: cell-based or functional assay
[8] = target: T5, human DLL4, full length, on cells; experiment: competition FACS: huNotch-1-biotin to DLL4 cells
Procedure: (§4) Notch blocking assay: Briefly, stable cell lines overexpressing cell-surface DLL4 were harvested from tissue culture flasks and re-suspended in phosphate buffered saline (PBS) containing 1% bovine serum albumin and 1 mM CaCl₂ (FACS buffer). HEK293G-DLL4 cells were dispensed into 96-well plate (v-bottom) at 1.5×10⁵ cells/well in FACS buffer. After spinning down cells and discarding the supernatant, 50 μL of purified IgG with appropriate dilution were added to each well, and incubated on ice at 4° C. for 60 minutes, followed by addition of 50 μL/well of Notch1-biotin at 0.2 μg/mL for human DLL4-293G or 2.0 μg/mL for mouse DLL4-293G (1.0 or 0.1 μg/mL final) for an additional 1 hour incubation ice at 4° C. After washing the cells two times with FACS buffer, 50 μL of R-phycoerythrin-conjugated streptavidin (1:150 dilution in FACS buffer) (Jackson ImmunoResearch, West Grove, Pa., Cat.#016-110-084) were added. Following an incubation on ice (4° C., 60 minutes), cells were washed three times and resuspended in FACS buffer. Fluorescence was measured using a Becton Dickinson FACSCalibur-HTS (Becton Dickinson, San Jose, Calif.). Data were analyzed using Graphpad Prism software, and IC₅₀ values were reported as the concentration of antibody to achieve 50% reduction of Notch1 bound to DLL4 expressing cells. […]

mouse DLL4 on cells [9] = target: T6, mouse DLL4 on cells; experiment: competition FACS: huNotch-1-biotin to DLL4 cells
Procedure: as §4

[10] = target: T3, mouse DLL4 extracellular domain; experiment: competition ELISA: biotin-DLL4 ECD to coated huNotch-1
Procedure: (§5) Plates were then washed 3 times with wash buffer (PBS, 0.05% Tween-20) and blocked with 200 μl/well blocking buffer (D-PBS, 1% BSA, 1 mM CaCl₂, 0.05% Tween-20) for 1 hour at 25° C. While blocking, biotin labeled DLL4 extracellular domain (14 nM) was mixed with antibody (30 pM-66 nM, 3-fold serial dilution in blocking buffer) for 1 hour at 25° C. with shaking. Assay plates were washed after blocking, and incubated with DLL4/antibody mixtures (100 μl/well, 1 hour at 25° C. with shaking). Plates were washed again and 100 μl/well streptavidin conjugated with HRP (Fitzgerald #65R-S104PHRPx, diluted 1:5,000 in blocking buffer) was added for 1 hour at 25° C. with shaking. After a final wash, plates were developed using 100 μl/well substrate (TMB Sigma #T8665), and the reaction was stopped using 100 μl/well 1N HCl, and the absorbance was read at 450 nm. Data were analyzed using Graphpad Prism software and IC₅₀ values were reported as the concentration of antibody to achieve 50% reduction of DLL4 bound to Notch1.
(§6) Further characterization determined 37D10 and 40B10 were identical rat mAbs.

[11] = target: T1, human DLL4 extracellular domain; experiment: SPR (Biacore); remark: listed apart in the source
[12] = target: T1, human DLL4 extracellular domain; experiment: binding ELISA
[13] = target: T2, cynomolgus monkey DLL4 extracellular …; experiment: binding ELISA
[14] = target: T3, mouse DLL4 extracellular domain; experiment: binding ELISA
[15] = target: T5, human DLL4, full length, on cells; experiment: FACS, DLL4 cells; remark: listed apart in the source
mouse DLL4 on cells [16] = target: T6, mouse DLL4 on cells; experiment: FACS, DLL4 cells; remark: listed apart in the source
[17] = target: T5, human DLL4, full length, on cells; experiment: FACS, DLL4 cells; remark: listed apart in the source
mouse DLL4 on cells [18] = target: T6, mouse DLL4 on cells; experiment: FACS, DLL4 cells; remark: listed apart in the source
[19] = target: T5, human DLL4, full length, on cells; experiment: cell-based or functional assay; remark: listed apart in the source
[20] = target: T1, human DLL4 extracellular domain; experiment: competition ELISA vs Notch-1
[21] = target: T3, mouse DLL4 extracellular domain; experiment: competition ELISA vs Notch-1
[22] = target: T5, human DLL4, full length, on cells; experiment: competition FACS: huNotch-1 to DLL4 cells
Procedure: (§7) Notch blocking assay: Briefly, stable cell lines overexpressing cell-surface DLL4 were harvested from tissue culture flasks and re-suspended in phosphate buffered saline (PBS) containing 1% bovine serum albumin and 1 mM CaCl₂ (FACS buffer). HEK293G-DLL4 cells were dispensed into 96-well plate (v-bottom) at 1.5×10⁵ cells/well in FACS buffer. After spinning down cells and discarding the supernatant, 50 μL of purified IgG with appropriate dilution were added to each well, and incubated on ice at 4° C. for 60 minutes, followed by addition of 50 μL/well of Notch1-biotin at 0.2 μg/mL for human DLL4-293G or 2.0 μg/mL for mouse DLL4-293G (1.0 or 0.1 μg/mL final) for an additional 1 hour incubation ice at 4° C. After washing the cells two times with FACS buffer, 50 μL of R-phycoerythrin-conjugated streptavidin (1:150 dilution in FACS buffer) (Jackson ImmunoResearch, West Grove, Pa., Cat.#016-110-084) were added. Following an incubation on ice (4° C., 60 minutes), cells were washed three times and resuspended in FACS buffer. Fluorescence was measured using a Becton Dickinson FACSCalibur-HTS (Becton Dickinson, San Jose, Calif.). Data were analyzed using Graphpad Prism software, and IC₅₀ values were reported as the concentration of antibody to achieve 50% reduction of Notch1 bound to DLL4 expressing cells.

mouse DLL4 on cells [23] = target: T6, mouse DLL4 on cells; experiment: competition FACS: huNotch-1 to DLL4 cells
Procedure: as §7

[24] = target: T1, human DLL4 extracellular domain; experiment: binding ELISA, DLL4 ECD
[25] = target: T3, mouse DLL4 extracellular domain; experiment: binding ELISA, DLL4 ECD
[26] = target: T1, human DLL4 extracellular domain; experiment: competition ELISA: biotin-DLL4 ECD to coated huNotch-1
Procedure: as §5, §6

T1 sequence (Q9NR61 27-529 limits assumed): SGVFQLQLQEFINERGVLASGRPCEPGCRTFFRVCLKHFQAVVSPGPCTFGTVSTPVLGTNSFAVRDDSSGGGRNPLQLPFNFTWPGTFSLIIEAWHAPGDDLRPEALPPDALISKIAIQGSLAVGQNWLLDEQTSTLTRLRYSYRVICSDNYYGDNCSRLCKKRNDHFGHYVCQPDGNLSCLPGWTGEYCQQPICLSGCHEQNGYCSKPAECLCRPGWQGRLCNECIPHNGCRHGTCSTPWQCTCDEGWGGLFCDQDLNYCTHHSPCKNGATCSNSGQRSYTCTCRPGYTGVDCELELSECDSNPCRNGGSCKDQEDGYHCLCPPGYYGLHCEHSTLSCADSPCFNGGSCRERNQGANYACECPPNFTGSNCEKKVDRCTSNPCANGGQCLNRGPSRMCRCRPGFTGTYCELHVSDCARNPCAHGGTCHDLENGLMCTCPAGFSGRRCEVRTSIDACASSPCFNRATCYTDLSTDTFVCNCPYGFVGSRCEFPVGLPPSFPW
T3 sequence (Q9JI71 27-532): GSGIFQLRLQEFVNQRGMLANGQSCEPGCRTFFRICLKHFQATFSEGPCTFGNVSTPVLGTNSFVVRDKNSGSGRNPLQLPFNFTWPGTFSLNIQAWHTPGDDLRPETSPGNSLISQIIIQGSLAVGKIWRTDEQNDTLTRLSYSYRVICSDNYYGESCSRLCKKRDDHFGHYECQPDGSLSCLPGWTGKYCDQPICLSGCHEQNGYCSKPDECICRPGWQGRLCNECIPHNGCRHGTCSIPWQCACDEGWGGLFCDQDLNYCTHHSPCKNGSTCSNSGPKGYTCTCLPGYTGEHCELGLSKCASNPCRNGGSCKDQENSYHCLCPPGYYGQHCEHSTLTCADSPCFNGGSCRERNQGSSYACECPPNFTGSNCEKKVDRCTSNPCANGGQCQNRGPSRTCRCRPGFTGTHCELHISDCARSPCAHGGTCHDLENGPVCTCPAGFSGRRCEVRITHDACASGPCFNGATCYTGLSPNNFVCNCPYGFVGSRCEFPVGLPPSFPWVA
T6 sequence (Q9JI71 27-686): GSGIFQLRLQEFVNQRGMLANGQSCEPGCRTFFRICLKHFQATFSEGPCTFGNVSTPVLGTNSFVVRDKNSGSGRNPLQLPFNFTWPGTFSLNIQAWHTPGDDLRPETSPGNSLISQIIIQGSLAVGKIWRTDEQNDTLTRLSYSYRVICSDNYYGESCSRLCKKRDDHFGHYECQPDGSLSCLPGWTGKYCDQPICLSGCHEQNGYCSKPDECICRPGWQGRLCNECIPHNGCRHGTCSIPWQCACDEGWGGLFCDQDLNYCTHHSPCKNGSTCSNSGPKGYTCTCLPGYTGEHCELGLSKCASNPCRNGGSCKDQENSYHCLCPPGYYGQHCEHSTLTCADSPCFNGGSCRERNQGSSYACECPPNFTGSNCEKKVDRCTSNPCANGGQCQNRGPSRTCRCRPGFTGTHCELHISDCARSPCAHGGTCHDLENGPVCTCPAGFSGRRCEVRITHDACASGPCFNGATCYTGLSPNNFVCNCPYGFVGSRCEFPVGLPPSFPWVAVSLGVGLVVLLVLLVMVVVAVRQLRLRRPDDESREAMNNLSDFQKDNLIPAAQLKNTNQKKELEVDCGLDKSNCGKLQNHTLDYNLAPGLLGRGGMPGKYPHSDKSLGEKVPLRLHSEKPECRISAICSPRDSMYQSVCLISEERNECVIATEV
T5 sequence (Q9NR61 27-685 limits assumed): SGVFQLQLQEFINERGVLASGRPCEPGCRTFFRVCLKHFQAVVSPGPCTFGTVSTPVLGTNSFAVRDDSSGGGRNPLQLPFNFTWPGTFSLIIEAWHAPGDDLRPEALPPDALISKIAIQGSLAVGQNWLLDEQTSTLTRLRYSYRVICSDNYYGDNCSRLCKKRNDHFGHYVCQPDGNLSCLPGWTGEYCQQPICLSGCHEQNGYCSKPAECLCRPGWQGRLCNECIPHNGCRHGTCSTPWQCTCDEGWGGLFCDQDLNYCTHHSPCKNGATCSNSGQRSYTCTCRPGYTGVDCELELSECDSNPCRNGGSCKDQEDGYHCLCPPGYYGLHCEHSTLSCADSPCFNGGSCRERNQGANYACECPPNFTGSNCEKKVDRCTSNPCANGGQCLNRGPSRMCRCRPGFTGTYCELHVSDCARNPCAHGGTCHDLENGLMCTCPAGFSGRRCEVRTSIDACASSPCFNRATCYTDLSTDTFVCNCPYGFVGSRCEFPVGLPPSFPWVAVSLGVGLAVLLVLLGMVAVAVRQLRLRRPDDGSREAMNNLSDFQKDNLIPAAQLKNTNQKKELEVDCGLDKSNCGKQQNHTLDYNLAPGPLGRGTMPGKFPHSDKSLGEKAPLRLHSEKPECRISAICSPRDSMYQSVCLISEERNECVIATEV
T4 sequence (D3ZHH1 28-530): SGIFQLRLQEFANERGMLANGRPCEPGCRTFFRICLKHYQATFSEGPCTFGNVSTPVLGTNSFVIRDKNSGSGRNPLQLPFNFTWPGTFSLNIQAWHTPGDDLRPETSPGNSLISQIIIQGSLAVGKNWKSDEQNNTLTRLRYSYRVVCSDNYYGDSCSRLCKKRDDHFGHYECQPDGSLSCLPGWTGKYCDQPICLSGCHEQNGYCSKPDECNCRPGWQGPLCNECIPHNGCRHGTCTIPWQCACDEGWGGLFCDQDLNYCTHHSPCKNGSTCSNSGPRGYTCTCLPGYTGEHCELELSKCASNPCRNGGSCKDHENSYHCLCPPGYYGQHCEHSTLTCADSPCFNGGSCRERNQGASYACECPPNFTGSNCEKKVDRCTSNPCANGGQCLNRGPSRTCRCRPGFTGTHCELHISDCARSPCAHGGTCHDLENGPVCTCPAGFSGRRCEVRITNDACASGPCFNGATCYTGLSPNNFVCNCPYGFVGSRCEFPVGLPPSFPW

| Kd [1] | koff [1] | kon [1] | Kd [2] | kon [2] | Kd [3] | koff [3] | kon [3] | EC50 [5] | EC50 (mouse DLL4 on cells [6]) | IC50 [8] | IC50 (mouse DLL4 on cells [9]) | IC50 [10] | Binder | other results |
| --- | --- | --- | --- | --- | --- | --- | --- | --- | --- | --- | --- | --- | --- | --- |
| 10.3 nM | 0.0012 s⁻¹ | 120000 M⁻¹ s⁻¹ | 11.6 nM | 110000 M⁻¹ s⁻¹ | 1.3 nM | 9e-05 s⁻¹ | 70000 M⁻¹ s⁻¹ | > 50 nM | 2.1 nM | 205 nM | 1.6 nM | 19.8 nM | 14A11 rat anti-DLL4 monoclonal antibody (antibody, rat IgG2a, V domains shown, rat IgG2a/K hybridoma mAb; also called MC13-14A11.3A4) VH: EVQLQQSGPELAKPGSSVKISCKASGYTFTNSYISWIKQTTGQGLEYVGYINTGSGGADYNEKFKGKATLTVDKSSRTAFMQLSSLTPGDSAVYYCAKSILLGSTCYFDYWGQGVLVTVSS VL: NTVLTQSPALAVSLGQRVTISCKASRSVSSPMYSYIYWYQQKPGQQPKLLIYRASTLASGVPARFSGSGSGTDFTLNIDPVEADDIATYFCQQSWSDPFTFGSGTKLEIKR | koff [2]: 0.0012 s⁻¹; binding result [4]: no binding; Notch activation Inhibition (IC50, nM), huDLL4 cell/Notch reporter cells [7]: 2.7 nM |
| – | – | – | – | – | 24 nM | – | – | – | – | – | – | – | 1A11 chimeric antibody (antibody, human IgG1, V domains shown, also called Chimera of 1A11; 1A11 (chimera)) VH: EVQLVESGGGLVQPGRSMKLSCAASGFTFRNFPMAWVRQAPTRGLEWVATISSSDGTTYYRDSVKGRFTISRDNAKSTLYLQVNSLRSEDTATYYCSRGYYNSPFAYWGQGTLVTVSS VL: DIQMTQSPASLSASLGETVTIECRASEDIYSNLAWYQQKPGNSPQLLIFDTNNLADGVPSRFSGSGSGTQSSLKINSLQSEDVASYFCQQYNNYPPTFGGGTKLELKR | Kd [11]: 9 nM; EC50 [12]: 0.2 nM; EC50 [13]: 0.33 nM; EC50 [14]: 0.3 nM; EC50 [15]: 19.6 nM; EC50 (mouse DLL4 on cells [16]): 0.74 nM; EC50 [17]: 6.29 nM; EC50 (mouse DLL4 on cells [18]): 0.53 nM; Reporter Assay (EC50, nM) [19]: 5.98 nM; IC50 [20]: 1.8 nM; IC50 [21]: 3.5 nM; IC50 [22]: 2.34 nM; IC50 (mouse DLL4 on cells [23]): 0.682 nM |
| 484 nM | 0.07 s⁻¹ | 140000 M⁻¹ s⁻¹ | < 617 nM | 40000 M⁻¹ s⁻¹ | 135 nM | 0.0135 s⁻¹ | 100000 M⁻¹ s⁻¹ | 2.3 nM | 0.7 nM | 5.5 nM | 3.8 nM | 3.36 nM | 37D10 rat anti-DLL4 monoclonal antibody (antibody, rat IgG2a, V domains shown, rat IgG2a/k hybridoma mAb; also called 40B10; 37D10 = 40B10) VH: AVQLVESGGGLVQPKESLKISCAASGFTFSNAAMYWVRLAPGKGLEWVARIRTKPNNYATYYAESVKGRFTISRDDSKSMVYVQMDNLKTEDTAMYYCTAAPWRDSYAHVYWGQGVMVTVSS VL: DIQMTQSPPVLSASVGDRVTLSCKASQNIHKNLDWYQQKHGDAPKLLIYYTDHLQTGVPSRFSGSGSATDYTLTISSLQPEDVATYYCYQYNGGPFTFGSGTKLEIKR | EC50 [24]: 0.12 nM; EC50 [25]: 0.14 nM; IC50 [26]: 5.39 nM |
